In the data set the test system is Escherichia coli TOP10. Kind of data set: shrunken log2 fold change of peptide-encoding DNA abundance (4.5 h post-induction vs induction); higher = less antimicrobial activity (less host growth inhibition). The settings on record: time post-induction: 4.5 h; library: site-saturation at positions 5, 18, 19, 20.
For RRIRRRPPRLPRPRPRPDWFPRP, the “shrunken log2 fold change” value is 0.276. Next, RRIRMRPPRLPRPRPRPADNPRP: 0.0259. Consider RRIRYRPPRLPRPRPRPLMYPRP, for which the “shrunken log2 fold change” value is -0.48.

Turning to RRIRNRPPRLPRPRPRPWKPPRP, the “shrunken log2 fold change” value was 0.0219. Regarding RRIRFRPPRLPRPRPRPSQNPRP, the “shrunken log2 fold change” value was -0.22.

RRIRMRPPRLPRPRPRPYMQPRP: the “shrunken log2 fold change” value was -0.338.

For RRIRERPPRLPRPRPRPITCPRP, the “shrunken log2 fold change” value was 0.0303. For the sequence RRIRKRPPRLPRPRPRPQQHPRP, the “shrunken log2 fold change” value came to 0.138.

Consider RRIRDRPPRLPRPRPRPYIPPRP, for which the “shrunken log2 fold change” value was -0.456. As for RRIRIRPPRLPRPRPRPTRIPRP, the figure is 0.0411; as for RRIRHRPPRLPRPRPRPYDNPRP, -0.0737. As for RRIRIRPPRLPRPRPRPDRQPRP, the figure is 0.0357; as for RRIRSRPPRLPRPRPRPKCTPRP, -0.0418. Next, RRIRSRPPRLPRPRPRPDCFPRP: 0.103; RRIRGRPPRLPRPRPRPHMKPRP: 0.103.

With RRIRKRPPRLPRPRPRPRQYPRP, the “shrunken log2 fold change” value was 0.0199. Next, RRIRTRPPRLPRPRPRPMAMPRP: 0.0345; RRIRDRPPRLPRPRPRPPMIPRP: -0.588.

On to RRIRPRPPRLPRPRPRPACNPRP, for which the “shrunken log2 fold change” value came to 0.00285. Consider RRIRMRPPRLPRPRPRPEYVPRP, for which the “shrunken log2 fold change” value came out at 0.16.

Turning to RRIRNRPPRLPRPRPRPMHGPRP, the “shrunken log2 fold change” value is -0.0225. Next, RRIRTRPPRLPRPRPRPCPWPRP: -0.21; RRIRRRPPRLPRPRPRPQVKPRP: 0.132; RRIRSRPPRLPRPRPRPLVHPRP: -0.253. For the sequence RRIRWRPPRLPRPRPRPQMQPRP, the “shrunken log2 fold change” value worked out at 0.0894. Next, RRIRGRPPRLPRPRPRPVTIPRP: 0.0068; RRIRIRPPRLPRPRPRPPRWPRP: 0.514. Turning to RRIRCRPPRLPRPRPRPVRHPRP, the “shrunken log2 fold change” value is 0.403. As for RRIRYRPPRLPRPRPRPIPRPRP, the figure is 0.0268; as for RRIRKRPPRLPRPRPRPEEYPRP, 0.0303; as for RRIRFRPPRLPRPRPRPIGKPRP, -0.0112. Next, RRIRVRPPRLPRPRPRPIRKPRP: -0.165. Regarding RRIRARPPRLPRPRPRPQVIPRP, the “shrunken log2 fold change” value was -0.109. As for RRIRYRPPRLPRPRPRPIFAPRP, the figure is 0.159. On to RRIRWRPPRLPRPRPRPFIPPRP, for which the “shrunken log2 fold change” value is -1.15. For the sequence RRIRYRPPRLPRPRPRPFEVPRP, the “shrunken log2 fold change” value was -0.0115.

Turning to RRIRWRPPRLPRPRPRPNLYPRP, the “shrunken log2 fold change” value was -0.169.

Regarding RRIRMRPPRLPRPRPRPDCVPRP, the “shrunken log2 fold change” value amounted to 1.71. As for RRIRSRPPRLPRPRPRPWIQPRP, the figure is -0.00956; as for RRIRFRPPRLPRPRPRPHGYPRP, -0.707. As for RRIRERPPRLPRPRPRPSNHPRP, the figure is -0.91; as for RRIRWRPPRLPRPRPRPIDQPRP, 0.105. Turning to RRIRERPPRLPRPRPRPRLGPRP, the “shrunken log2 fold change” value worked out at 0.157.

In the case of RRIRPRPPRLPRPRPRPNLGPRP, the “shrunken log2 fold change” value is -0.242. Next, RRIRGRPPRLPRPRPRPVLEPRP: 0.795.

For the sequence RRIRSRPPRLPRPRPRPEFFPRP, the “shrunken log2 fold change” value was -0.0464.

On to RRIRNRPPRLPRPRPRPIGNPRP, for which the “shrunken log2 fold change” value was 0.0106. Take RRIRPRPPRLPRPRPRPNVPPRP: the “shrunken log2 fold change” value is -0.11.

Turning to RRIRERPPRLPRPRPRPQFAPRP, the “shrunken log2 fold change” value is -0.148. Next, RRIRLRPPRLPRPRPRPHFQPRP: -0.131; RRIRGRPPRLPRPRPRPWMQPRP: -0.539. As for RRIRPRPPRLPRPRPRPVKVPRP, the figure is 0.161; as for RRIRIRPPRLPRPRPRPKSVPRP, -0.0925; as for RRIRIRPPRLPRPRPRPPAAPRP, 0.458.

On to RRIRWRPPRLPRPRPRPDAVPRP, for which the “shrunken log2 fold change” value stood at 0.4. For RRIRGRPPRLPRPRPRPIIWPRP, the “shrunken log2 fold change” value stood at 0.392.

As for RRIRERPPRLPRPRPRPTWNPRP, the “shrunken log2 fold change” value is -0.167. As for RRIRLRPPRLPRPRPRPSTKPRP, the figure is -0.0833; as for RRIRWRPPRLPRPRPRPNPQPRP, -0.0303. As for RRIRNRPPRLPRPRPRPFDIPRP, the figure is -0.701; as for RRIRFRPPRLPRPRPRPPQYPRP, 0.0298; as for RRIRKRPPRLPRPRPRPYKLPRP, -0.281.

On to RRIRARPPRLPRPRPRPKMWPRP, for which the “shrunken log2 fold change” value came out at 0.553. Consider RRIRDRPPRLPRPRPRPNHYPRP, for which the “shrunken log2 fold change” value was -0.459.

RRIRGRPPRLPRPRPRPEIRPRP: the “shrunken log2 fold change” value came to 0.122. As for RRIRNRPPRLPRPRPRPLCQPRP, the figure is -0.307; as for RRIRSRPPRLPRPRPRPHGEPRP, -0.0153; as for RRIRSRPPRLPRPRPRPTSLPRP, 0.074. Next, RRIRQRPPRLPRPRPRPINSPRP: -0.413. Next, RRIRFRPPRLPRPRPRPYRAPRP: -0.353; RRIRARPPRLPRPRPRPDFPPRP: 0.102; RRIRLRPPRLPRPRPRPDLPPRP: -0.0128. For the sequence RRIRKRPPRLPRPRPRPSEHPRP, the “shrunken log2 fold change” value is -0.183. Turning to RRIRHRPPRLPRPRPRPVASPRP, the “shrunken log2 fold change” value was -0.122. Next, RRIRSRPPRLPRPRPRPSSYPRP: -0.344; RRIRMRPPRLPRPRPRPTTKPRP: 0.268; RRIRNRPPRLPRPRPRPIQHPRP: -0.0743.

Consider RRIRTRPPRLPRPRPRPDAGPRP, for which the “shrunken log2 fold change” value amounted to 0.11. Regarding RRIRNRPPRLPRPRPRPCFKPRP, the “shrunken log2 fold change” value is -0.0138. Next, RRIRGRPPRLPRPRPRPIRVPRP: -0.189; RRIRRRPPRLPRPRPRPESAPRP: 0.493; RRIRARPPRLPRPRPRPEISPRP: 0.81.

Consider RRIRDRPPRLPRPRPRPRCCPRP, for which the “shrunken log2 fold change” value is 0.18. For the sequence RRIRQRPPRLPRPRPRPGLDPRP, the “shrunken log2 fold change” value turned out to be 0.255.

As for RRIRGRPPRLPRPRPRPARPPRP, the “shrunken log2 fold change” value is 0.63.

As for RRIRIRPPRLPRPRPRPRSNPRP, the “shrunken log2 fold change” value was -0.0529. Next, RRIRHRPPRLPRPRPRPFLMPRP: -0.456; RRIRERPPRLPRPRPRPYCDPRP: -0.0156; RRIRWRPPRLPRPRPRPSSKPRP: -0.369.

With RRIRIRPPRLPRPRPRPMYLPRP, the “shrunken log2 fold change” value is -0.249. As for RRIRVRPPRLPRPRPRPSVIPRP, the figure is -0.239; as for RRIRWRPPRLPRPRPRPPRNPRP, 0.794. Take RRIRYRPPRLPRPRPRPYLNPRP: the “shrunken log2 fold change” value is -0.802.

Regarding RRIRMRPPRLPRPRPRPCWWPRP, the “shrunken log2 fold change” value came out at 0.0436. For RRIRQRPPRLPRPRPRPLGKPRP, the “shrunken log2 fold change” value is -0.0227. Next, RRIRKRPPRLPRPRPRPDCNPRP: -0.00139. As for RRIRFRPPRLPRPRPRPQIMPRP, the figure is -0.736; as for RRIRYRPPRLPRPRPRPYMSPRP, -0.00192; as for RRIRLRPPRLPRPRPRPSPQPRP, 0.362. Next, RRIRQRPPRLPRPRPRPCKYPRP: -0.0164; RRIRARPPRLPRPRPRPPVDPRP: 0.545; RRIRNRPPRLPRPRPRPHTIPRP: -0.106. Turning to RRIRYRPPRLPRPRPRPAGVPRP, the “shrunken log2 fold change” value came out at 0.0619. As for RRIRFRPPRLPRPRPRPNWYPRP, the “shrunken log2 fold change” value is -0.542. As for RRIRFRPPRLPRPRPRPIYMPRP, the figure is -0.878. Turning to RRIRSRPPRLPRPRPRPPAEPRP, the “shrunken log2 fold change” value was found to be 2.3.

As for RRIRVRPPRLPRPRPRPCQHPRP, the “shrunken log2 fold change” value is -0.09. Next, RRIRCRPPRLPRPRPRPQIMPRP: -0.352; RRIRLRPPRLPRPRPRPNTCPRP: -0.823.

RRIRCRPPRLPRPRPRPHTYPRP: the “shrunken log2 fold change” value was -0.578. Next, RRIRSRPPRLPRPRPRPYPCPRP: 0.0185. As for RRIRDRPPRLPRPRPRPVMIPRP, the figure is 0.0644. As for RRIRHRPPRLPRPRPRPASIPRP, the figure is -0.164; as for RRIRFRPPRLPRPRPRPNYIPRP, -0.587; as for RRIRTRPPRLPRPRPRPLGKPRP, 0.0663. As for RRIRLRPPRLPRPRPRPANHPRP, the “shrunken log2 fold change” value was -0.333. Next, RRIRMRPPRLPRPRPRPEQVPRP: 0.493. Consider RRIRQRPPRLPRPRPRPKKMPRP, for which the “shrunken log2 fold change” value is -0.108.

As for RRIRDRPPRLPRPRPRPWFAPRP, the “shrunken log2 fold change” value was -0.0921. In the case of RRIRQRPPRLPRPRPRPSFKPRP, the “shrunken log2 fold change” value was -0.525.

RRIRARPPRLPRPRPRPGDLPRP: the “shrunken log2 fold change” value was 0.796.

For the sequence RRIRERPPRLPRPRPRPYFWPRP, the “shrunken log2 fold change” value was -0.143. Consider RRIRWRPPRLPRPRPRPVVAPRP, for which the “shrunken log2 fold change” value amounted to 0.28. As for RRIRQRPPRLPRPRPRPFQGPRP, the figure is -0.0134; as for RRIRQRPPRLPRPRPRPLKEPRP, -0.0182.

Source of the values: the supplement of paper PMC9112550, “Optimization of the antimicrobial peptide Bac7 by deep mutational scanning” (BMC Biology, 2022).
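Further: peptides expressed intracellularly from a pBAD plasmid library in pooled LB shake-flask culture, induced with 0.3% L-arabinose, DNA abundance read by NGS, three biological replicates, DESeq2 with apeglm shrinkage.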
